Patent publication US20170037111A1, “Novel peptides and combination of peptides for use in immunotherapy against ovarian cancer and other cancers” (immatics biotechnologies GmbH, priority 2015, published 2017)

Biological target: HLA-A*02:01 (Homo sapiens, UniProt P04439, D140Y/D185E/D98H/E176V/E277Q/G131W/G231S/I119V/I121R/I166T/I218V/L300P/L318F/N151K/N90K/P208A/P217A/Q86G/Q94H/R138H/R169H/T345S)
Experiment: MHC binding assay (UV-ligand exchange, β2m ELISA, peptide exchange yield)
Conditions: MHC class I binding score; binding to HLA-A*02:01 ranged by peptide exchange yield (UV-ligand exchange, β2m ELISA)
Excerpt: Candidate peptides for T cell based therapies according to the present invention were further tested for their MHC binding capacity (affinity). The individual peptide-MHC complexes were produced by UV-ligand exchange, where a UV-sensitive peptide is cleaved upon UV-irradiation, and exchanged with the peptide of interest as analyzed. Only peptide candidates that can effectively bind and stabilize the peptide-receptive MHC molecules prevent dissociation of the MHC complexes. To determine the yield of the exchange reaction, an ELISA was performed based on the detection of the light chain (β2m) of stabilized MHC complexes. The assay was performed as generally described in Rodenko et al. (Rodenko et al., 2006).
96 well MAXISorp plates (NUNC) were coated over night with 2 ug/ml streptavidin in PBS at room temperature, washed 4× and blocked for 1h at 37° C. in 2% BSA containing blocking buffer. […] Peptide-MHC monomers of the UV-exchange reaction were diluted 100 fold in blocking buffer. Samples were incubated for 1h at 37° C., washed four times, incubated with 2 ug/ml HRP conjugated anti-β2m for 1h at 37° C., washed again and detected with TMB solution that is stopped with […]. Absorption was measured at 450 nm. Candidate peptides that show a high exchange yield (preferably higher than 50%, most preferred higher than 75%) are generally preferred for a generation and production of antibodies or fragments thereof, and/or T cell receptors or fragments thereof, as they show sufficient avidity to the MHC molecules and prevent dissociation of the MHC complexes.

Substance | Peptide exchange
95 (SVIPQIQKV; listed as Homo sapiens) [compound 95] | ″+++″ (≧50% = +++)
13 (YLMDESLNL; listed as Homo sapiens) [compound 13] | ″+++″ (≧50% = +++)
73 (NIFDLQIYV; listed as Homo sapiens) [compound 73] | ″+++″ (≧50% = +++)
196 (YLYSVEIKL; listed as Homo sapiens) [compound 196] | ″++++″ (≧75% = ++++)
119 (FLYIGDIVSL; listed as Homo sapiens) [compound 119] | ″++++″ (≧75% = ++++)
186 (TLFFQQNAL; listed as Homo sapiens) [compound 186] | ″++″ (≧20% = ++)
185 (FLIDDKGYTL; listed as Homo sapiens) [compound 185] | ″++″ (≧20% = ++)
120 (ALLGIPLTLV; listed as Homo sapiens) [compound 120] | ″+++″ (≧50% = +++)
47 (ILLSVPLLVV; listed as Homo sapiens) [compound 47] | ″++″ (≧20% = ++)
104 (STMEQNFLL; listed as Homo sapiens) [compound 104] | ″++++″ (≧75% = ++++)
15 (VLLTFKIFL; listed as Homo sapiens) [compound 15] | ″++″ (≧20% = ++)
107 (FLQPVDDTQHL; listed as Homo sapiens) [compound 107] | ″+++″ (≧50% = +++)
91 (IMQDFPAEIFL; listed as Homo sapiens) [compound 91] | ″++++″ (≧75% = ++++)
170 (RLQETLSAA; listed as Homo sapiens) [compound 170] | ″+++″ (≧50% = +++)
70 (GLLDYPVGV; listed as Homo sapiens) [compound 70] | ″+++″ (≧50% = +++)
51 (LLPDLEFYV; listed as Homo sapiens) [compound 51] | ″++++″ (≧75% = ++++)
46 (ILTEENIHL; listed as Homo sapiens) [compound 46] | ″+++″ (≧50% = +++)
35 (KINDTIYEV; listed as Homo sapiens) [compound 35] | ″+++″ (≧50% = +++)
231 (FLSPQQPPLLL; listed as Homo sapiens) [compound 231] | ″++″ (≧20% = ++)

Substance | Peptide exchange
273 (NLFQSVREV; listed as Homo sapiens) [compound 273] | ″++″ (≧20% = ++)
234 (ALMEDTGRQML; listed as Homo sapiens) [compound 234] | ″++″ (≧20% = ++)
248 (FLFPNQYVDV; listed as Homo sapiens) [compound 248] | ″+++″ (≧50% = +++)
117 (ILPDGEDFLAV; listed as Homo sapiens) [compound 117] | ″+++″ (≧50% = +++)
254 (TLLAFIMEL; listed as Homo sapiens) [compound 254] | ″+++″ (≧50% = +++)
18 (YLVAKLVEV; listed as Homo sapiens) [compound 18] | ″++″ (≧20% = ++)
111 (YVWGFYPAEV; listed as Homo sapiens) [compound 111] | ″+++″ (≧50% = +++)
201 (RLVDYLEGI; listed as Homo sapiens) [compound 201] | ″+++″ (≧50% = +++)
140 (YMDAPKAAL; listed as Homo sapiens) [compound 140] | ″++″ (≧20% = ++)
169 (NLPEYLPFV; listed as Homo sapiens) [compound 169] | ″+++″ (≧50% = +++)
147 (SLLEAVSFL; listed as Homo sapiens) [compound 147] | ″+++″ (≧50% = +++)
177 (YLLPEEYTSTL; listed as Homo sapiens) [compound 177] | ″++++″ (≧75% = ++++)
55 (SLLDLETLSL; listed as Homo sapiens) [compound 55] | ″++++″ (≧75% = ++++)
82 (FLSSVTYNL; listed as Homo sapiens) [compound 82] | ″+++″ (≧50% = +++)
84 (VTFGEKLLGV; listed as Homo sapiens) [compound 84] | ″++″ (≧20% = ++)
123 (NLWDLTDASVV; listed as Homo sapiens) [compound 123] | ″+++″ (≧50% = +++)
229 (RLPGPLGTV; listed as Homo sapiens) [compound 229] | ″++″ (≧20% = ++)
153 (FLIANVLYL; listed as Homo sapiens) [compound 153] | ″+″ (≧10% = +)
116 (YHIDEEVGF; listed as Homo sapiens) [compound 116] | ″+″ (≧10% = +)

Continued, values first:

Peptide exchange | Substance
″+++″ (≧50% = +++) | 517 (LLMPIPEGLTL; listed as Homo sapiens) [compound 517]
″+++″ (≧50% = +++) | 365 (YVIDQGETDVYV; listed as Homo sapiens) [compound 365]
″+++″ (≧50% = +++) | 508 (ILAQEQLVVGV; listed as Homo sapiens) [compound 508]
″+++″ (≧50% = +++) | 583 (ILANDGVLLAA; listed as Homo sapiens) [compound 583]
″++″ (≧20% = ++) | 373 (SLLEDKGLAEV; listed as Homo sapiens) [compound 373]
″+++″ (≧50% = +++) | 473 (AMATESILHFA; listed as Homo sapiens) [compound 473]
″+++″ (≧50% = +++) | 549 (AMLENASDIKL; listed as Homo sapiens) [compound 549]
″+++″ (≧50% = +++) | 442 (GLLGGGGVLGV; listed as Homo sapiens) [compound 442]
″+++″ (≧50% = +++) | 456 (LLIGHLERV; listed as Homo sapiens) [compound 456]
″+++″ (≧50% = +++) | 327 (GLAPFTEGISFV; listed as Homo sapiens) [compound 327]
″+++″ (≧50% = +++) | 613 (RLLPPGAVVAV; listed as Homo sapiens) [compound 613]
″+++″ (≧50% = +++) | 325 (FIMPATVADATAV; listed as Homo sapiens) [compound 325]
″++″ (≧20% = ++) | 408 (VLDDSIYLV; listed as Homo sapiens) [compound 408]
″+++″ (≧50% = +++) | 334 (TLTKVLVAL; listed as Homo sapiens) [compound 334]
″++++″ (≧75% = ++++) | 621 (VLMDRLPSLL; listed as Homo sapiens) [compound 621]
″++++″ (≧75% = ++++) | 620 (KLLNKIYEA; listed as Homo sapiens) [compound 620]
″+++″ (≧50% = +++) | 619 (ALQDRVPLA; listed as Homo sapiens) [compound 619]

Peptide exchange | Substance
″+++″ (≧50% = +++) | 316 (ILLERLWYV; listed as Homo sapiens) [compound 316]
″++″ (≧20% = ++) | 522 (TLWYRSPEV; listed as Homo sapiens) [compound 522]
″++″ (≧20% = ++) | 565 (ALQETPTSV; listed as Homo sapiens) [compound 565]
″+++″ (≧50% = +++) | 281 (ILRESTEEL; listed as Homo sapiens) [compound 281]
″+++″ (≧50% = +++) | 558 (GLLENIPRV; listed as Homo sapiens) [compound 558]
″++″ (≧20% = ++) | 538 (LLLAHIIAL; listed as Homo sapiens) [compound 538]
″+++″ (≧50% = +++) | 577 (VMFEDGVLMRL; listed as Homo sapiens) [compound 577]
″+++″ (≧50% = +++) | 592 (RLLSAAENFL; listed as Homo sapiens) [compound 592]
″+++″ (≧50% = +++) | 596 (ALLDQTKTLAESAL; listed as Homo sapiens) [compound 596]
″+++″ (≧50% = +++) | 605 (KLYEAVPQL; listed as Homo sapiens) [compound 605]
″+++″ (≧50% = +++) | 606 (ALWETEVYI; listed as Homo sapiens) [compound 606]
″+++″ (≧50% = +++) | 407 (YLMDLINFL; listed as Homo sapiens) [compound 407]
″+++″ (≧50% = +++) | 386 (ILFRYPLTI; listed as Homo sapiens) [compound 386]
″+++″ (≧50% = +++) | 542 (RVWDISTVSSV; listed as Homo sapiens) [compound 542]
″++++″ (≧75% = ++++) | 358 (ALDEYTSEL; listed as Homo sapiens) [compound 358]
″+++″ (≧50% = +++) | 468 (YLRSVGDGETV; listed as Homo sapiens) [compound 468]
